The text below walks through data of paper PMC13579936, “Walking the tightrope: Balancing opposing cooperativities in dynein assembly” (The Journal of Biological Chemistry, 2026).

B1: D. melanogaster dynein light chain LC8 (homodimer) (natural protein)
chain: MSDRKAVIKNADMSEEMQQDAVDCATQALEKYNIEKDIAAYIKKEFDKKYNPTWHCIVGRNFGSYVTHETRHFIYFYLGQVAILLFKSG
notes: dynein light chain LC8, D. melanogaster; homodimer; source: purity verified by SDS-PAGE and size-exclusion chromatography
B3: D. melanogaster dynein light chain Tctex1 (homodimer) (natural protein)
chain: MDDSREESQFIVDDVSKTIKEAIETTIGGNAYQHDKVNNWTGQVVENCLTVLTKEQKPYKYIVTAMIMQKNGAGLHTASSCYWNNDTDGSCTVRWENKTMYCIVSVFGLAV
notes: dynein light chain Tctex1, D. melanogaster; homodimer; source: purity verified by SDS-PAGE and size-exclusion chromatography

Common to all, as to experiment: ITC; VP-ITC, 25 °C; 50 mM sodium phosphate, 50 mM sodium chloride, 1 mM sodium azide, pH 7.5; 39 isotherms of eight experiment types (IC in cell or in syringe, two- and three-protein titrations, dissociation; 27 from ref. 8, 12 new) fitted globally to a seven-state model by hierarchical Bayesian inference
In assay [1] the target is T1, TI: Tctex1 homodimer with one IC chain bound (half-bound) (D. melanogaster, UniProt Q94524 1-111; Q24246 84-143).
T1 construct: dynein light chain Tctex1, D. melanogaster; as the chain of m3; cytoplasmic dynein intermediate chain, D. melanogaster, construct ICTL; as the chain of m1; source: formed from the purified proteins m1 and m3 in the ITC samples; copies: 2 + 1
T1 sequence 1: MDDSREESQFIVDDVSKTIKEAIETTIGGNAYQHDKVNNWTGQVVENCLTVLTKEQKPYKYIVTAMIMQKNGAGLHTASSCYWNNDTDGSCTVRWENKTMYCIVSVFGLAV
T1 sequence 2: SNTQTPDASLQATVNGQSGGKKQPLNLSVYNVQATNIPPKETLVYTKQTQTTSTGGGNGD
To be noted: both partners purified.

In assay [2] the target is T2, TII: Tctex1 homodimer with two IC chains bound (D. melanogaster, UniProt Q94524 1-111; Q24246 84-143).
T2 construct: dynein light chain Tctex1, D. melanogaster; as the chain of m3; cytoplasmic dynein intermediate chain, D. melanogaster, construct ICTL; as the chain of m1; source: formed from the purified proteins m1 and m3 in the ITC samples; copies: 2 + 2
T2 sequence 1: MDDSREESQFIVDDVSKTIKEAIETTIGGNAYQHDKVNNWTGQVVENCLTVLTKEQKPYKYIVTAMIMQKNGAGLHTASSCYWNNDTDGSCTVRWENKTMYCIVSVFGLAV
T2 sequence 2: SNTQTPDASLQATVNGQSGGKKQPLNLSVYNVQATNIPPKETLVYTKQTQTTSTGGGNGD
To be noted: both partners purified.

Assay [3] has as its target B1. The following applies: both partners purified.
For assay [4], the target named is B3. To be noted: both partners purified.
The target of assay [5] is TILI: one IC chain with a half-bound Tctex1 homodimer and a half-bound LC8 homodimer (D. melanogaster) (UniProt Q94524).
Assay [6] has as its target T3, LI: LC8 homodimer with one IC chain bound (half-bound) (D. melanogaster, UniProt Q24117 1-89; Q24246 84-143).
T3 construct: dynein light chain LC8, D. melanogaster; as the chain of m2; cytoplasmic dynein intermediate chain, D. melanogaster, construct ICTL; as the chain of m1; source: formed from the purified proteins m1 and m2 in the ITC samples; copies: 2 + 1
To be noted: both partners purified.

The target of assay [7] is T4, LII: LC8 homodimer with two IC chains bound (D. melanogaster, UniProt Q24117 1-89; Q24246 84-143).
T4 construct: dynein light chain LC8, D. melanogaster; as the chain of m2; cytoplasmic dynein intermediate chain, D. melanogaster, construct ICTL; as the chain of m1; source: formed from the purified proteins m1 and m2 in the ITC samples; copies: 2 + 2
To be noted: both partners purified.

For B1, the values for the dH in assay [1] and in assay [2] were -12.7 kcal/mol and -25.8 kcal/mol, respectively.

B2: D. melanogaster dynein intermediate chain ICTL (domain or fragment, UniProt Q24246 84-143, looked up)
chain: SNTQTPDASLQATVNGQSGGKKQPLNLSVYNVQATNIPPKETLVYTKQTQTTSTGGGNGD
notes: cytoplasmic dynein intermediate chain (IC), D. melanogaster; source: purity verified by SDS-PAGE and size-exclusion chromatography
Take B2: in assay [3], the “dH, first IC on the LC8 dimer (state LI)” value was -14.8 kcal/mol and the “dH, second IC on the LC8 dimer (LI to LII)” value is -15.1 kcal/mol. For the same molecule, in assay [4], the “dH, first IC on the Tctex1 dimer (state TI)” value was -6.76 kcal/mol and the “dH, second IC on the Tctex1 dimer (TI to TII)” value is -4.97 kcal/mol. The dH in assay [5] was -18.1 kcal/mol.

As to B3, the dH in assay [6] was -4.7 kcal/mol; in assay [7], -7.72 kcal/mol.
